Test [1] addresses MC receptors in rat brain homogenate. The test is described as follows: Melanocortin receptor binding assay using ^125I-HP 467 in rat brain homogenate. The following applies: individual tetrapeptides. As to the method:
For assays, fine chemicals were obtained from Sigma (St. Louis Mo.) and GF/B plates and MICROSCINT were obtained from Packard Instrument Co. (Meriden Conn.). Frozen rat brains were thawed and the thalamus and hypothalamus were dissected out and weighed. The tissue was homogenized in 40 ml buffer A (50 mM Tris-HCl, 2 mM EDTA, 10 mM CaCl2, 100 μM PMSF, pH 7.4) in a Dounce homogenizer. The homogenate was centrifuged at 39,000×g for 10 min, resuspended in 20 ml fresh buffer and recentrifuged. The pellet was resuspended in 80 ml buffer B (50 mM Tris-HCl, 2 mM EDTA, 10 mM CaCl2, 5 mM MgCl2, 100 μM PMSF, pH 7.4). ^125I-HP 467 was custom labeled by Amersham to a specific activity of 2000 Ci/mmol (Amersham; Arlington Heights IL). Fifty pM ^125I-HP 467 and 0.2 mg protein/ml membrane suspension containing 2 mg/ml BSA was added to each assay tube.
Competition assays were performed using α-MSH, γ1-MSH, γ2-MSH, γ3-MSH and ACTH (4-10) also containing 1 mM phenanthroline, 200 μg/ml bacitracin, and 5 μg/ml leupeptin. Tubes were incubated for 2 hours at 37° C. The assay was terminated by filtration through GF/B filters previously soaked in 5 mg/ml BSA Tris-HCl buffer. The samples were washed with Tris-HCl, dried and counted in Packard Minaxl gamma counter (Packard Instrument Co.).
IC50 values were determined in brain tissue as described in Example III.

Test [2] addresses T1, MC receptor in mouse B16 cells (Mus musculus, UniProt Q01727).
T1 construct: endogenous in cells; host or cells: mouse B16 cells
Nature of the test: MC receptor binding activity in mouse B16 cells. The note with it: individual tetrapeptides. The source says:
The 36 peptides were screened for MC receptor binding activity in rat brain and in mouse B16 cells.

In another test the target is T2, hMC1 (Homo sapiens, UniProt Q01726).
T2 construct: expressed in transfected cells; host or cells: mouse L cells
T2 sequence (Q01726 whole entry): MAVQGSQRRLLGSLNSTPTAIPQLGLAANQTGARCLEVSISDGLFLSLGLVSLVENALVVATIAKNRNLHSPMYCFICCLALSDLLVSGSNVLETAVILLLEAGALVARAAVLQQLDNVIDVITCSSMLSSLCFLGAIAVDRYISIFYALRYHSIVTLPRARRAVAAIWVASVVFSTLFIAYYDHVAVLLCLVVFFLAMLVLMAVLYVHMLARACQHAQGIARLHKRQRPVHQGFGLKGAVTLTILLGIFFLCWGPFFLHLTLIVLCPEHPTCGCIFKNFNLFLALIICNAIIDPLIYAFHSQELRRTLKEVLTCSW
Nature of the test: Displacement of ^125I-HP 467 in transfected mouse L cells expressing hMC1. The following applies: receptor expressed in mouse L cells, read-out: Binding IC50, MC-1.

The target of another test is T3, hMC5 (Homo sapiens, UniProt P33032).
T3 construct: expressed in transfected cells; host or cells: HEK 293 cells
T3 sequence (P33032 whole entry): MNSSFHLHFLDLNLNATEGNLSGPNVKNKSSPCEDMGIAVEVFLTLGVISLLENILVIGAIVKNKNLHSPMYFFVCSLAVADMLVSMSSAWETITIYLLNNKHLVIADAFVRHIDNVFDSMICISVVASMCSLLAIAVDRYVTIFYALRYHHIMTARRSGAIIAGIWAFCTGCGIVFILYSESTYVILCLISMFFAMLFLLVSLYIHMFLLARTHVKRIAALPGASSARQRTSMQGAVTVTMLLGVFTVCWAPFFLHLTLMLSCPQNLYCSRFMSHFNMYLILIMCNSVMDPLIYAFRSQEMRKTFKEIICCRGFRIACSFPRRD
The test is described as follows: Displacement of ^125I-HP 467 in HEK 293 cells expressing hMC5. The note with it: receptor expressed in HEK 293 cells, read-out: Binding IC50, MC-5.

A further test deals with Sprague-Dawley rats. Nature of the test: HP 467 antagonism of HP 228 induced hypophagia (food intake). Type of test: in vivo. The note with it: IP BID, HP 228 1.5 mg/kg, HP 467 3.0 mg/kg. As to the method:
Male Sprague-Dawley rats weighing 250 to 300 grams were divided into three treatment groups of 8 rats each. The control group received IP saline injections BID (1 ml/kg) at 8 AM and 4 PM. […] After each injection, each rat immediately received a second injection. […] All injections started at 4 PM on day 0 and ended on the afternoon of day 2. Food consumption and body weight measurements were taken daily, each morning.

Another test concerns the target T4, hMC3 (Homo sapiens, UniProt P41968).
T4 construct: expressed in transfected cells; host or cells: mouse L cells
Nature of the test: Displacement of ^125I-HP 467 in transfected mouse L cells expressing hMC3. The note with it: receptor expressed in mouse L cells, read-out: Binding IC50, MC-3.

A further test deals with T5, hMC4 (Homo sapiens, UniProt P32245).
T5 construct: expressed in transfected cells; host or cells: mouse L cells
T5 sequence (P32245 whole entry): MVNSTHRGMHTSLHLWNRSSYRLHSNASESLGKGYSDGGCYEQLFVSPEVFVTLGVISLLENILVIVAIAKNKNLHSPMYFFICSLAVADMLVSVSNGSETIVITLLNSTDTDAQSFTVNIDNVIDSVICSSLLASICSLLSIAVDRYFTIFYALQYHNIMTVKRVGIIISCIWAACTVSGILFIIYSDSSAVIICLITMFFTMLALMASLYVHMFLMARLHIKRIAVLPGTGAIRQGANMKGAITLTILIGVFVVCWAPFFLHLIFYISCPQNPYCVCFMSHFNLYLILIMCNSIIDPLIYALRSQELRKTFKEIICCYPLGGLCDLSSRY
The test is described as follows: Displacement of ^125I-HP 467 in transfected mouse L cells expressing hMC4. The note with it: receptor expressed in mouse L cells, read-out: Binding IC50, MC-4.

Test [3] deals with MC receptors in rat brain homogenate. The test is described as follows: Melanocortin receptor binding assay using ^125I-HP 467 in rat brain homogenate. The note with it: saturation binding to rat brain membranes.
In test [4] the target is MC receptors in rat brain homogenate (rat). The test is described as follows: competition binding, rat brain membranes.
Test [5] deals with MC receptors of mouse B16 cells (mouse). Nature of the test: competition binding, mouse B16 cells; tracer not stated.
Chain of MC receptors of mouse B16 cells (mouse) (Q01727 whole entry): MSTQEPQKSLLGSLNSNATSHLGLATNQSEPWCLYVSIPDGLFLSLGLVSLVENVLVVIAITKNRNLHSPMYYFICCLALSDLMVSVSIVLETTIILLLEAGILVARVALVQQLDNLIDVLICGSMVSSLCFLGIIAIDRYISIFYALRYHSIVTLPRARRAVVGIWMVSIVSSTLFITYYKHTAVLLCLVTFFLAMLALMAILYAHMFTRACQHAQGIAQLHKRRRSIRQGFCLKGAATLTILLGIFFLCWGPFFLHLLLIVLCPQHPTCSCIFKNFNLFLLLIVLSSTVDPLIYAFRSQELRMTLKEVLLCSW
Test [6] addresses human melanocortin receptor 3 (human) (UniProt P41968). The test is described as follows: saturation radioligand binding; mouse L cells expressing MC3.
Test [7] has the same target. The test is described as follows: saturation radioligand binding; HEK 293 cells expressing MC3.
Test [8] concerns the target human melanocortin receptor 1 (human) (UniProt Q01726). The test is described as follows: saturation radioligand binding; mouse L cells expressing MC1.
Test [9] shares this target. Nature of the test: saturation radioligand binding; HEK 293 cells expressing MC1.
The target of test [10] is human melanocortin receptor 4 (human) (UniProt P32245). The test is described as follows: saturation radioligand binding; mouse L cells expressing MC4.
Chain of human melanocortin receptor 4 (human) (P32245 whole entry): as the sequence (P32245 whole entry) above
Test [11] deals with MC receptors in rat brain homogenate (rat). The test is described as follows: saturation radioligand binding, rat brain membranes.

*1 amine or outer side, *2 acyl side, *3 side chain or, on linkers, in order; H or OH if unused. Where a SMILES comes first, the peptide text is derived from it. [ ]: non-standard residue; d: D form. The star is where a group is joined. dPhe(4-125I) = para-(125I)iodo-D-phenylalanine, O=C([C@@H](Cc1ccc([125I])cc1)N[*:1])[*:2]; dPhe(4-Cl) = N[C@H](Cc1ccc(Cl)cc1)C(=O)O; dPhe(4-I) = N[C@H](Cc1ccc(I)cc1)C(=O)O; 2Nal = N[C@@H](Cc1ccc2ccccc2c1)C(=O)O; d2Nal = N[C@H](Cc1ccc2ccccc2c1)C(=O)O; Fmoc = O=C(OCC1c2ccccc2-c2ccccc21)*; Cha = N[C@@H](CC1CCCCC1)C(=O)O; d2Thi = N[C@H](Cc1cccs1)C(=O)O; Nle = CCCC[C@H](N)C(=O)O

Data on 21 molecules can be found in patent US6350430B1, “Melanocortin receptor ligands and methods of using same” (Lion Bioscience Science AG, priority 1997, dated 2002).

As a reminder, the IC50 is the concentration that gives 50% inhibition. A word on the Kd: it is a measure of binding affinity in units of concentration. A low value points to a tighter complex.

Chain of human melanocortin receptor 1 (human) (Q01726 whole entry): as the sequence (Q01726 whole entry) above
Chain of human melanocortin receptor 3 (human) (P41968 whole entry): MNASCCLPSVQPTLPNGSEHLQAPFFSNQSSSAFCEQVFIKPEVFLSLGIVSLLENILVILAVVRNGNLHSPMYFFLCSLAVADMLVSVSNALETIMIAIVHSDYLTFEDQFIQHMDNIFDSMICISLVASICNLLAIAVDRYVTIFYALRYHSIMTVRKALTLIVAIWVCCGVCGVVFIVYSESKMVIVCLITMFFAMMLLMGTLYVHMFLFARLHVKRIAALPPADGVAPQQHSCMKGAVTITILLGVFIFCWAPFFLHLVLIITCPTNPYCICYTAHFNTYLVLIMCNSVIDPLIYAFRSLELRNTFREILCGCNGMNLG
T1 sequence (Q01727 whole entry): as the sequence (Q01727 whole entry) above
T4 sequence (P41968 whole entry): as the sequence (P41968 whole entry) above

As to `CC(=O)N[C@@H](Cc1c[nH]cn1)C(=O)N[C@H](Cc1ccc(Cl)cc1)C(=O)N[C@@H](CCCNC(=N)N)C(=O)N[C@@H](Cc1ccc2ccccc2c1)C(N)=O` [AC—H-(pcl-f)-R-(Nal)-NH2] (Ac-H[dPhe(4-Cl)]R[2Nal]-NH2), the IC50 in test [1] came to 18 nM. Regarding `CC(=O)NCCCC[C@H](NC(=O)OCC1c2ccccc2-c2ccccc21)C(=O)N[C@H](Cc1cccs1)C(=O)N[C@@H](CCCNC(=N)N)C(=O)N[C@@H](Cc1ccc2ccccc2c1)C(N)=O` [Ac-(αFmLys)-(D-Thi)-R-(Nal)-NH2] (Fmoc-K(Ac)[d2Thi]R[2Nal]-NH2), in [1], the IC50 was 469 nM.

Regarding `CC(=O)NCCCC[C@H](NC(=O)OCC1c2ccccc2-c2ccccc21)C(=O)N[C@H](Cc1ccc(Cl)cc1)C(=O)N[C@@H](CCCNC(=N)N)C(=O)N[C@@H](Cc1ccc2ccccc2c1)C(N)=O` [Ac-(αFmLys)-(pCl-f)-R-(Nal)-NH2] (Fmoc-K(Ac)[dPhe(4-Cl)]R[2Nal]-NH2), the IC50 in test [1] worked out at 427 nM. On the same count and under the same terms, with `CC(=O)NCCCC[C@H](NC(=O)OCC1c2ccccc2-c2ccccc21)C(=O)N[C@@H](CCCNC(=N)N)C(=O)N[C@@H](CC1CCCCC1)C(=O)N[C@@H](Cc1ccc2ccccc2c1)C(N)=O` [Ac-(αFmLys)-R-(L-Cha)-(Nal)-NH2] (Fmoc-K(Ac)R[Cha][2Nal]-NH2) the figure was more than 4000 nM; with `CC(=O)NCCCC[C@H](NC(=O)OCC1c2ccccc2-c2ccccc21)C(=O)N[C@@H](CCCNC(=N)N)C(=O)N[C@@H](CC1CCCCC1)C(=O)N[C@H](CCCNC(=N)N)C(N)=O` [Ac-(αFmLys)-R-(L-Cha)-r-NH2] (Fmoc-K(Ac)R[Cha][dR]-NH2), 427 nM. The same measure, in the same setting: for `CC(=O)NCCCC[C@H](NC(=O)OCC1c2ccccc2-c2ccccc21)C(=O)N[C@@H](CCCNC(=N)N)C(=O)N[C@@H](CCCNC(=N)N)C(=O)N[C@@H](Cc1ccc2ccccc2c1)C(N)=O` [Ac-(αFmLys)-R-R-(Nal)-NH2] (Fmoc-K(Ac)RR[2Nal]-NH2) the value was 2000 nM. In the case of `CC(=O)N[C@@H](Cc1c[nH]cn1)C(=O)N[C@H](Cc1ccc(Cl)cc1)C(=O)N[C@@H](CCCNC(=N)N)C(=O)N[C@H](Cc1ccc2ccccc2c1)C(N)=O` [Ac—H-(pCl-f)-R-(D-Nal)-NH2, Ac-His-(pCl-f)-Arg-(D-Nal)-NH2] (Ac-H[dPhe(4-Cl)]R[d2Nal]-NH2), the IC50 stood at 51 nM in [1] and 18 nM in test [1] (listed as Ac-His-(pCl-f)-Arg-(D-Nal)-NH2). For the molecule `CC(=O)N[C@@H](Cc1c[nH]cn1)C(=O)N[C@H](Cc1ccc(Cl)cc1)C(=O)N[C@@H](CC1CCCCC1)C(=O)N[C@H](CCCNC(=N)N)C(N)=O` [Ac—H-(pcl-f)-(L-Cha)-r-NH2] (Ac-H[dPhe(4-Cl)][Cha][dR]-NH2), the IC50 in test [1] is more than 5000 nM; in test [2] it was 156 nM. Regarding `CCCC[C@H](NC(C)=O)C(=O)N[C@@H](CCC(N)=O)C(=O)N[C@@H](Cc1c[nH]cn1)C(=O)N[C@H](Cc1ccccc1)C(=O)N[C@@H](CCCNC(=N)N)C(=O)N[C@H](Cc1c[nH]c2ccccc12)C(=O)NCC(N)=O` [HP 228, Ac-(Nle)QHfRwG-NH2, reference compound], the results for the IC50 at hMC1 and on hMC5 were 1.49 nM and 194 nM, respectively. Moreover, in the test on Sprague-Dawley rats (Day 1), the “Hypophagia (food intake) Change, Day 1” value is given as −6.8%. The “Hypophagia (food intake) Change, Day 2” value with Sprague-Dawley rats (Day 2) was −5.3%. For `CCCC[C@H](NC(C)=O)C(=O)N[C@@H](CCC(N)=O)C(=O)N[C@@H](Cc1c[nH]cn1)C(=O)N[C@H](Cc1ccc(I)cc1)C(=O)N[C@@H](CCCNC(=N)N)C(=O)N[C@H](Cc1c[nH]c2ccccc12)C(=O)NCC(N)=O` [HP 467, Ac-Nle-Gln-His-(p(I)-D-Phe)-Arg-(D-Trp)-Gly-NH2] (Ac-[Nle]QH[dPhe(4-I)]R[dW]G-NH2), the IC50 on hMC1 was determined as 0.23 nM; on hMC3, 0.48 nM; on hMC4, 0.31 nM; at hMC5, 0.46 nM. For the molecule `CCCC[C@H](NC(C)=O)C(=O)N[C@@H](CCC(N)=O)C(=O)N[C@@H](Cc1c[nH]cn1)C(=O)N[C@H](Cc1ccc(I)cc1)C(=O)N[C@@H](CCCNC(=N)N)C(=O)N[C@H](Cc1c[nH]c2ccccc12)C(=O)NCC(N)=O` [^125I-HP 467, Ac-Nle-Gln-His-(p(^125I)-D-Phe)-Arg-(D-Trp)-Gly-NH2] (Ac-[Nle]QH[dPhe(4-I)]R[dW]G-NH2), the Kd in test [3] turned out to be 0.4 nM.

Consider AC-H-(pcl-f)-R-(Nal)-NH2 (peptide), for which the IC50 in test [4] was found to be 18 nM; in [5], 68 nM. “Ac-(αFmLys)-(D-Thi)-R-(Nal)-NH2 (peptide)”: the IC50 in [4] was 469 nM. For the molecule “Ac-(αFmLys)-(pCl-f)-R-(Nal)-NH2 (peptide)”, the IC50 in test [4] was 427 nM; in test [5], 41 nM. In turn, “Ac-(αFmLys)-R-(L-Cha)-(Nal)-NH2 (peptide)” returned an IC50 in [5] of 1140 nM. Regarding Ac-(αFmLys)-R-(L-Cha)-r-NH2 (peptide), the IC50 amounted to 427 nM in test [4] and 185 nM in test [5].

For the molecule Ac-(αFmLys)-R-R-(Nal)-NH2 (peptide), the IC50 in [4] was 2000 nM; in [5] it was 1420 nM. The like results for “Ac-H-(pCl-f)-R-(D-Nal)-NH2 (SEQ ID NO:18) (peptide)” were, in that order, 51 nM and 19 nM. As for Ac-H-(pcl-f)-(L-Cha)-r-NH2 (peptide), in test [5], the IC50 was 156 nM.

Turning to “^125I-HP 467, Ac-Nle-Gln-His-(p(^125I)-D-Phe)-Arg-(D-Trp)-Gly-NH2”, the Kd came to 0.04 nM in [6]; 0.29 nM in test [7]; 0.092 nM in [8]; 0.132 nM in [9]; 0.082 nM in [10]. In test [11], Ac-[Nle]QH[dPhe(4-125I)]R[dW]G-NH2 [^125I-HP 467, Ac-Nle-Gln-His-(p(^125I)-D-Phe)-Arg-(D-Trp)-Gly-NH2] came in with a Bmax (fmoles/mg protein) of 21 and a Kd of 0.4 nM.
